# In paper PMC7145534, “Are the intrinsically disordered linkers involved in SSB binding to accessory proteins?” (Nucleic Acids Research, 2019):
# “And” between values parts separate entries of the source, which are not always exact repeats. Equal entries are not always repeated.
# T1: Escherichia coli RecO protein (E. coli, UniProt P0A7H3 1-242)
# T1 construct: RecO, E. coli, overexpressed from plasmid pMCSG7; His-tag cleaved with TEV protease; monomeric by sedimentation velocity; source: E. coli BL21(DE3)pLysS, purified (Ni-NTA, HiTrap Heparin HP)
# T1 sequence (looked up): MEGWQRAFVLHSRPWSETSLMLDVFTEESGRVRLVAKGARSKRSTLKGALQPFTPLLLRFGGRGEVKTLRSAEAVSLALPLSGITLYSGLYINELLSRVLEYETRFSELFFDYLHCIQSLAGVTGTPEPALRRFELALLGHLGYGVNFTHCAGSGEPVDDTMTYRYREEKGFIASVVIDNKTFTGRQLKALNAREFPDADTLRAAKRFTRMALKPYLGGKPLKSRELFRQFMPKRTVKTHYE
# T2: Escherichia coli PriC (E. coli, UniProt P23862 1-175)
# T2 construct: PriC, E. coli, from plasmid pET11a-EcoPriC; source: E. coli BL21(DE3), purified (Macro-Prep High S, Sephacryl S-200 HR)
# T2 sequence (looked up): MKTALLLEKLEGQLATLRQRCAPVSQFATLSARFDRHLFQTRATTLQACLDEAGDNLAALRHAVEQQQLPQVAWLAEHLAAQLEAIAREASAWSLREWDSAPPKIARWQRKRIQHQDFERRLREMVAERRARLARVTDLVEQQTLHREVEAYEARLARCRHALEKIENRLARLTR
# T3: Escherichia coli PriC (E. coli, UniProt P23862 1-175)
# T3 construct: E. coli PriC, replication restart protein; source: E. coli BL21(DE3), plasmid pET11a-EcoPriC (pAM001), purified (Macro-Prep High S, HiPrep Sephacryl S-200 HR)
# T3 sequence (looked up): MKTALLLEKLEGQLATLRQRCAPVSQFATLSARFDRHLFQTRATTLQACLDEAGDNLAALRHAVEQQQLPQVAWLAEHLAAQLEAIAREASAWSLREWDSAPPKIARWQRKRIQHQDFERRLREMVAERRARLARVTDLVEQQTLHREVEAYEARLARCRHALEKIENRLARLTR
# T4: Escherichia coli RecO protein (E. coli, UniProt P0A7H3 1-242)
# T4 construct: E. coli RecO, recombination mediator of the RecF pathway; source: E. coli BL21(DE3)pLysS, plasmid pMCSG7, purified (Ni-NTA, HiTrap Heparin HP) after His-tag cleavage with TEV protease
# T4 sequence (looked up): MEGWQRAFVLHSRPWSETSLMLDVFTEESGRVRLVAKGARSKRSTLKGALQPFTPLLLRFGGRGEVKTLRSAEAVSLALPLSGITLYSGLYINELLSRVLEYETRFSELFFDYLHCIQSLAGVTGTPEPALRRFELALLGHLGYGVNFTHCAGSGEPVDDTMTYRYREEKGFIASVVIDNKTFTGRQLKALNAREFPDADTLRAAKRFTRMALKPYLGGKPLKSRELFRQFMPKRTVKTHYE
# How the values were obtained:
# [1] = biological target: T1, Escherichia coli RecO protein; assay: ITC; peptide (40-50 µM) titrated into RecO (2 µM); buffer BTP pH 8.0, 50 mM NaCl, 15°C; N floated; conditions: both partners purified
# [2] = biological target: T1, Escherichia coli RecO protein; assay: ITC; peptide (40-50 µM) titrated into RecO (2 µM); buffer BTP pH 8.0, 50 mM NaCl, 37°C; N floated; conditions: both partners purified
# Escherichia coli PriC [3] = biological target: T2, Escherichia coli PriC; assay: ITC; peptide (40-50 µM) titrated into PriC (2 µM); buffer BTP pH 8.0, 10 mM NaCl, 25°C; fit with N, K and ΔH floated; conditions: both partners purified
# [4] = biological target: T1, Escherichia coli RecO protein; assay: ITC; peptide (40-50 µM) titrated into SIP (1-2 µM); buffer BTP pH 8.0, 50 mM NaCl, 25°C; fit with N, K and ΔH floated; K = observed association constant; conditions: both partners purified
# [5] = biological target: T1, Escherichia coli RecO protein; assay: as above; conditions: both partners purified; remark: listed apart in the source
# Escherichia coli PriA [6] = biological target: T5, Escherichia coli PriA (E. coli, UniProt P17888 1-732); assay: as above; conditions: both partners purified
# T5 construct: PriA, E. coli
# T5 sequence (P17888 whole entry): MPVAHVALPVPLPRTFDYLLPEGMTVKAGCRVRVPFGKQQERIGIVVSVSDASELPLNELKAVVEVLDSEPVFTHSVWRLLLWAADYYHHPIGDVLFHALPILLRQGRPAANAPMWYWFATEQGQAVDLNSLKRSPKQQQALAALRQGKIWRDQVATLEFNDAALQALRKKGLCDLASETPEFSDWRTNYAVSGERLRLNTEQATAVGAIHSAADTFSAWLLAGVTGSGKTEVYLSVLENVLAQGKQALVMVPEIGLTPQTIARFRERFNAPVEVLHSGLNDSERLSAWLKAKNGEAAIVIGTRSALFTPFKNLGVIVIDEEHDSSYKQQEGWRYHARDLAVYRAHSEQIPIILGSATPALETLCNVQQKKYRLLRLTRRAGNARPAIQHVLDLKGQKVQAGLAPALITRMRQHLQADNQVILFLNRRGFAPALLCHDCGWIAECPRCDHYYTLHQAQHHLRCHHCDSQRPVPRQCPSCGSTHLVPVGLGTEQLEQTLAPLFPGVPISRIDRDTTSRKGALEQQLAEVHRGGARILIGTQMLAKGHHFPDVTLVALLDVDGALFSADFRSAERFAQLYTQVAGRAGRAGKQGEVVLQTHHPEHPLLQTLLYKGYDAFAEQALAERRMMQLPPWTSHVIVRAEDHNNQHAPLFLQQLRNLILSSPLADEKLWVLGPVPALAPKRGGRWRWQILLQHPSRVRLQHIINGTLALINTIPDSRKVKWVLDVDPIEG
# [7] = biological target: T6, chi (χ) subunit of DNA polymerase III (E. coli, UniProt P28905 1-147); assay: as above; conditions: both partners purified
# T6 construct: chi subunit of DNA polymerase III, E. coli; also called χ protein; DNA Pol III (χ)
# T6 sequence (P28905 whole entry): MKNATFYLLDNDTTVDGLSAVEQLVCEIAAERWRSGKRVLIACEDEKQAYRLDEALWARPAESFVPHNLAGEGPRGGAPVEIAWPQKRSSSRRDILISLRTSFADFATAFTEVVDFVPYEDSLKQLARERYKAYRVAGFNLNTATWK
# Escherichia coli PriC [8] = biological target: T3, Escherichia coli PriC; assay: ITC; SSB-Ct peptide titrated into PriC; buffer BTP pH 8.0, 10 mM NaCl, 25°C; N fixed to 1 for the values of Table 1; conditions: both partners purified
# [9] = biological target: T4, Escherichia coli RecO protein; assay: ITC; SSB-Ct peptide (40–50 μM) titrated into SIP (1–2 μM); buffer BTP (20 mM Bis-Tris Propane, 25% glycerol, 1 mM TCEP) pH 8.0, 50 mM NaCl, 25°C; observed association constants; N fixed to 1 for the values of Table 1; conditions: both partners purified
# Escherichia coli PriA [10] = biological target: T7, Escherichia coli PriA (E. coli, UniProt P17888 1-732); assay: as above; conditions: both partners purified
# T7 construct: E. coli PriA, replication restart protein
# T7 sequence (P17888 whole entry): as the sequence (P17888 whole entry) above
# [11] = biological target: T8, chi (χ) subunit of DNA polymerase III (E. coli, UniProt P28905 1-147); assay: as above; conditions: both partners purified
# T8 construct: E. coli DNA polymerase III chi subunit; also called χ protein; DNA Pol III (χ)
# T8 sequence (P28905 whole entry): as the sequence (P28905 whole entry) above
# [12] = biological target: T1, Escherichia coli RecO protein; assay: ITC; SSB tetramer (8-10 µM), without DNA, titrated into RecO (1 µM); buffer BTP pH 7.0, 200 mM NaCl, 25°C; N floated, N = RecO per SSB tetramer; ΔH per tip; conditions: both partners purified
# RecO = conditions: 0.35 μM tetramer, BTP pH 7.0, 200 mM NaCl, 25°C, no RecO
# Method: Sedimentation velocity experiments were performed with an Optima XL-A analytical ultracentrifuge and An50Ti rotor (Beckman Coulter, Fullerton, CA, USA) at 42 000 rpm (25°C) as described ([50]). The concentrations used were 1–2 μM SIPs, 0.3–0.5 μM SSB tetramers, while monitoring absorbance at 230 or 280 nm. The experiments with SSB-Ct peptides were performed in Buffer BTP at pH 8.0 and 50 mM NaCl. The experiment with SSB proteins and the deletion constructs were performed in Buffer BTP at pH 7.0 and 200 mm NaCl. The sample (380 μl) and buffer (394 μl) were loaded into each sector of an Epon charcoal-filled two-sector centerpiece. Absorbance data were collected by scanning the sample cells at intervals of 0.003 cm. Data were analyzed using SEDFIT, to obtain c(s) distributions ([70]). The c(s) distribution function defines the populations of species with different sedimentation rates and represents a variant of the distribution of Lamm equation solutions ([70]). The density and viscosity of the experimental buffers at 25°C were determined using [sequence] […] The partial specific volume of (dT)70 used was 0.56 ml/g. In the experiments involving more than one species, the partial specific volumes of complexes were calculated assuming additivity using Equation (4), where = number of moles of species ‘i’, = molecular weight of species ‘i’, and = partial specific volume of each species i.(4)
# RecO binding to SSB tetramers with portions of the IDL deleted. […] (C) The results of sedimentation velocity experiments, plotted as the c(s) distribution ([70]) for each SSB construct (0.35 μM tetramer) in the absence (black lines) and presence (red lines) of 2.5 molar excess of RecO (3.5 μM) per C-terminus.
# [13] = biological target: T4, Escherichia coli RecO protein; assay: ITC; SSB tetramer–(dT)70 complex (9–10 μM) titrated into RecO (1 μM); buffer BTP pH 7.0, 200 mM NaCl, 25°C; N fixed to 4, K and ΔH per C-terminus; conditions: both partners purified
# [14] = biological target: T4, Escherichia coli RecO protein; assay: ITC; apo SSB tetramer (9–10 μM) titrated into RecO (1 μM); buffer BTP pH 7.0, 200 mM NaCl, 25°C; N fixed to 4 RecO per tetramer, K and ΔH per C-terminus; conditions: both partners purified
# [15] = biological target: the molecule itself; assay: AUC; sedimentation velocity, 42 000 rpm, 25°C; SSB construct 0.35 μM tetramer alone and with 3.5 μM RecO (2.5 molar excess per C-terminus); buffer BTP pH 7.0, 200 mM NaCl
molecule,measurement,setting,value
"SSB-Ct peptide P65 (C-terminal 65 amino acids of E. coli SSB) (peptide, UniProt P0AGE0 114-178, looked up, the C-terminal 65 amino acids of E. coli SSB (the whole IDL 113-168 and the acidic tip 169-177); also called full-length C-terminal intrinsically disordered tail of SSB including the tip; source: bought: WatsonBio (peptide)) peptide: GGRQGGGAPAGGNIGGGQPQGGWGQPQQPQGGNQFSGGAQSRPQQSAPAAPSNEPPMDFDDDIPF",Ka,[1],9.25e+06 M⁻¹
same,stoichiometry N,[1],0.99 ± 0.01
same,Ka,[2],2.15e+07 M⁻¹
same,stoichiometry N,[2],0.95 ± 0.01
same,Ka,Escherichia coli PriC [3],1e+06 M⁻¹
same,stoichiometry N,Escherichia coli PriC [3],1.1 ± 0.11
same,Ka,[4],4.89e+06 M⁻¹
same,stoichiometry N,[4],1.05 ± 0.04
same,stoichiometry N,[5],1.04 and 0.84 and 0.96
same,Ka,Escherichia coli PriA [6],500000 M⁻¹ and 320000 M⁻¹
same,stoichiometry N,Escherichia coli PriA [6],1.12 and 1.01
same,Ka,[7],650000 M⁻¹ and 340000 M⁻¹
same,stoichiometry N,[7],0.93 and 1.02
"SSB-Ct peptide P65 (C-terminal 65 amino acids of E. coli SSB) (peptide, UniProt P0AGE0 114-178, looked up, E. coli SSB, the C-terminal 65 amino acids (the full 56 residue IDL 113-168 and the acidic tip 169-177); Holds all three PXXP motifs; source: synthetic peptide; bought: WatsonBio) peptide: GGRQGGGAPAGGNIGGGQPQGGWGQPQQPQGGNQFSGGAQSRPQQSAPAAPSNEPPMDFDDDIPF",dH,Escherichia coli PriC [8],-2.6 ± 0.1 kcal/mol
same,dH,[9],-4.7 ± 0.1 kcal/mol
same,dH,Escherichia coli PriA [10],-9.8 ± 0.1 kcal/mol
same,dH,[11],-9.3 ± 0.2 kcal/mol
"SSBΔ130-166 tetramer (natural protein, E. coli, UniProt P0AGE0 1-178, looked up, E. coli SSB with residues 130-166 of the IDL deleted, acidic tip kept) MASRGVNKVILVGNLGQDPEVRYMPNGGAVANITLATSESWRDKATGEMKEQTEWHRVVLFGKLAEVASEYLRKGSQVYIEGQLRTRKWTDQSGQDRYTTEVVVNVGGTMQMLGGRQGGGAPAGGNIGGGPPMDFDDDIPF",Ka,[12],2e+06 M⁻¹ and 1.5e+06 M⁻¹
same,stoichiometry N,[12],3.8 and 4.04
"SSBΔ130-166: SSB tetramer variant with IDL residues 130-166 deleted, retaining the acidic tip (protein) MASRGVNKVILVGNLGQDPEVRYMPNGGAVANITLATSESWRDKATGEMKEQTEWHRVVLFGKLAEVASEYLRKGSQVYIEGQLRTRKWTDQSGQDRYTTEVVVNVGGTMQMLGGRQGGGAPAGGNIGGGPPMDFDDDIPF","sedimentation coefficient, SSB alone",RecO,1.3 S
"SSBΔ130-166 tetramer (natural protein, E. coli, UniProt P0AGE0 1-178, looked up, E. coli SSB with residues 130-166 of the IDL deleted, acidic tip kept; All three PXXP motifs deleted; Used apo and in complex with (dT)70) MASRGVNKVILVGNLGQDPEVRYMPNGGAVANITLATSESWRDKATGEMKEQTEWHRVVLFGKLAEVASEYLRKGSQVYIEGQLRTRKWTDQSGQDRYTTEVVVNVGGTMQMLGGRQGGGAPAGGNIGGGPPMDFDDDIPF","dH (per tip, ΔH/4)",[13],-4.5 ± 0.1 kcal/mol
same,"dH (per tip, ΔH/4)",[14],-2.3 ± 0.1 kcal/mol
same,stoichiometry N,[15],4
